Reference: patent US20250019440A1 (Zymeworks, published 2025)

T1: Human PD-L2 (human, UniProt Q9BQ51 20-219)
T1 construct: Amine-coupled to a CM5 chip for SPR; also called recombinant PD-L2
T1 sequence (looked up): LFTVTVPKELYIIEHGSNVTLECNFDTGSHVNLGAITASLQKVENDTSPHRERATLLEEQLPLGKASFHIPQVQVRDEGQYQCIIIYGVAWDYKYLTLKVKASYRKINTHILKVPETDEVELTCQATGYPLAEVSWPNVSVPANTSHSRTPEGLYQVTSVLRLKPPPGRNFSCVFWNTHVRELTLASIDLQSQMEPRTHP


Legend:
Human CD3 (recombinant) = Human CD3 (recombinant) (human); test: SPR, CD3 amine-coupled, variant as analyte, 1:1 model
Chain of Human CD3 (recombinant) (human) (chain, as listed by the source): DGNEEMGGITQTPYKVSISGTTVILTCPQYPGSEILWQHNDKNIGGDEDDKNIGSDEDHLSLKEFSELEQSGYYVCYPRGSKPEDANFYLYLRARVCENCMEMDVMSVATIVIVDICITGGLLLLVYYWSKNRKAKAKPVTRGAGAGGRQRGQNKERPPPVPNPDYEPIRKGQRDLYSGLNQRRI

PD-L1 on cells = PD-L1 on cells (UniProt Q9NZQ7 19-290, limits assumed); test: cell-based or functional assay
Chain of PD-L1 on cells (Q9NZQ7 19-290 limits assumed): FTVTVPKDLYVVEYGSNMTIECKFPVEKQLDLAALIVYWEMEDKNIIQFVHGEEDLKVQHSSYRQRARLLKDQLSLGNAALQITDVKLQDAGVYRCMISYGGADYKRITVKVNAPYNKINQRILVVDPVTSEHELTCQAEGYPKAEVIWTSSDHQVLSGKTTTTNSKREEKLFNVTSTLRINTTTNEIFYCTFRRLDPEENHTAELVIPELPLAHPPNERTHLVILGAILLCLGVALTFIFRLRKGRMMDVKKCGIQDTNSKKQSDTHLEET

Human PD-L1 [1] = molecular target: T2, Human PD-L1 (human, UniProt Q9NZQ7 19-239); test: SPR, PD-L1 amine-coupled, variant as analyte, 1:1 model; third of three variants in the merged cell (G1 4-1 PD-1)
T2 construct: Amine-coupled to a CM5 chip for SPR; also called recombinant human PD-L1
T2 sequence (Q9NZQ7 19-239 limits assumed): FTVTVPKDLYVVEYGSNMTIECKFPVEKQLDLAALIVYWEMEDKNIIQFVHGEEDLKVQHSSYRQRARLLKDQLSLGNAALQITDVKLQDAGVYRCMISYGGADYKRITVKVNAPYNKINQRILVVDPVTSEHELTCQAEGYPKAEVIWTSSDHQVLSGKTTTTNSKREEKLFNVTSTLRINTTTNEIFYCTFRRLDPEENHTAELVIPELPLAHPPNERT

Human PD-L1 [2] = molecular target: T2, Human PD-L1; test: SPR, PD-L1 amine-coupled, variant as analyte, 1:1 model
Human PD-L2 = molecular target: T1, Human PD-L2; test: SPR, PD-L2 amine-coupled, variant as analyte, 1:1 model
Human PD-L1 [3] = molecular target: T2, Human PD-L1; test: SPR, PD-L1 amine-coupled, variant as analyte, 1:1 model; remark: listed apart in the source
Human PD-L1 [4] = molecular target: T2, Human PD-L1; test: SPR, PD-L1 amine-coupled, variant as analyte

Row | Kd (Human CD3 (recombinant)) | EC50 (read off the curve); hybrid PD-1/PD-L1 reporter gene assay, delta RLU, PD-1+ Jurkat T cells with SNU-620 cells, top left graph; composite signal of CD3 engagement and PD-1:PD-L1 blockade (PD-L1 on cells) | Kd (Human PD-L1 [1]) | Kd (Human PD-L1 [2]) | Kd (Human PD-L2) | Kd (Human PD-L1 [3]) | binding result (Human PD-L1 [4]) | Binder
1 | 3.5 nM | ~0.5 nM | 280 nM | – | – | – | – | v38737 (other) heavy 1: EVQLVESGGGLVQPGGSLRLSCAASGVTFNYYGMSWIRQAPGKGLEWVASITSSGGRIYYPDSVKGRFTISRENTQKTLYLQMNSLRAEDTAVYYCTLDGRDGWVAYWGQGTLVTVSSASTKGPSVFPLAPSSKSTSGGTAALGCLVKDYFPEPVTVSWNSGALTSGVHTFPAVLQSSGLYSLSSVVTVPSSSLGTQTYICNVNHKPSNTKVDKKVEPKSCDKTHTCPPCPAPEAAGGPSVFLFPPKPKDTLMISRTPEVTCVVVSVSHEDPEVKFNWYVDGVEVHNAKTKPREEQYNSTYRVVSVLTVLHQDWLNGKEYKCKVSNKALPAPIEKTISKAKGQPREPQVYVYPPSRDELTKNQVSLTCLVKGFYPSDIAVEWESNGQPENNYKTTPPVLDSDGSFALVSKLTVDKSRWQQGNVFSCSVMHEALHNHYTQKSLSLSPGGGGGSGDRPWNPPTFSPALLVVTEGDNATFTCSFSNTSESFRLVWHRESPGYETDTLASFPEDRSTPLPDARFRVTQLPNGRDFHMSVVRARRNDSGTYVCGAIAFHPVIQIKESLRAELRVTE light: NFMLTQPHSVSESPGKTVTISCKRNTGNIGSNYVNWYQQHEGSSPTTIIYRNDKRPDGVSDRFSGSIDRSSKSASLTISNLKTEDEADYFCQSYSSGFIFGGGTKLTVLGQPKAAPSVTLFPPSSEELQANKATLVCLISDFYPGAVTVAWKADSSPVKAGVETTTPSKQSNNKYAASSYLSLTPEQWKSHRSYSCQVTHEGSTVEKTVAPTECS heavy 2: QVQLVESGGGLVQPGGSLRLSCSVSGIDLSSNPMIWVRQAPGKGLQYIGIIDTDGSTYYADWAKGRFTISKDSTTVYLQINSPRAEDTAVYYCARRLHGSSNGYYDDLWGQGTLVTVSSGGGGSGGGGSGGGGSGGGGSDGQMTQSPSSVSASVGDRVTITCQASQSIYSYLSWYQQKPGQRPKLLIYKASTLASGVPSRFSGSGSGTDFTLTISSVQPEDFATYYCQQGYTVTNVDKNTFGGGTKVEIKAAEPKSSDKTHTCPPCPAPEAAGGPSVFLFPPKPKDTLMISRTPEVTCVVVSVSHEDPEVKFNWYVDGVEVHNAKTKPREEQYNSTYRVVSVLTVLHQDWLNGKEYKCKVSNKALPAPIEKTISKAKGQPREPQVYVLPPSRDELTKNQVSLLCLVKGFYPSDIAVEWESNGQPENNYLTWPPVLDSDGSFFLYSKLTVDKSRWQQGNVFSCSVMHEALHNHYTQKSLSLSPG
2 | 39 nM | – | – | 110 nM | 230 nM | 310 nM | – | v38739 (other) heavy 1: EVQLVESGGGLVQPGGSLRLSCAASGVTFNYYGMSWIRQAPGKGLEWVASITSSGGRIYYPDSVKGRFTISRENTQKTLYLQMNSLRAEDTAVYYCTLDGRDGWVAYWGQGTLVTVSSASTKGPSVFPLAPSSKSTSGGTAALGCLVKDYFPEPVTVSWNSGALTSGVHTFPAVLQSSGLYSLSSVVTVPSSSLGTQTYICNVNHKPSNTKVDKKVEPKSCDKTHTCPPCPAPEAAGGPSVFLFPPKPKDTLMISRTPEVTCVVVSVSHEDPEVKFNWYVDGVEVHNAKTKPREEQYNSTYRVVSVLTVLHQDWLNGKEYKCKVSNKALPAPIEKTISKAKGQPREPQVYVYPPSRDELTKNQVSLTCLVKGFYPSDIAVEWESNGQPENNYKTTPPVLDSDGSFALVSKLTVDKSRWQQGNVFSCSVMHEALHNHYTQKSLSLSPGGGGGSGDRPWNPPTFSPALLVVTEGDNATFTCSFSNTSESFVLNWYRMSPSNQTDKLAAFPEDRSQPGQDARFRVTQLPNGRDFHMSVVRARRNDSGTYLCGAISLAPKLQIKESLRAELRVTE light: NFMLTQPHSVSESPGKTVTISCKRNTGNIGSNYVNWYQQHEGSSPTTIIYRNDKRPDGVSDRFSGSIDRSSKSASLTISNLKTEDEADYFCQSYSSGFIFGGGTKLTVLGQPKAAPSVTLFPPSSEELQANKATLVCLISDFYPGAVTVAWKADSSPVKAGVETTTPSKQSNNKYAASSYLSLTPEQWKSHRSYSCQVTHEGSTVEKTVAPTECS heavy 2: QVQLVESGGGLVQPGGSLRLSCSVSGIDLSSNPMIWVRQAPGKGLQYIGIIDTDGSTYYADWAKGRFTISKDSTTVYLQINSPRAEDTAVYYCARRLHGSSNGYYDDLWGQGTLVTVSSGGGGSGGGGSGGGGSGGGGSDGQMTQSPSSVSASVGDRVTITCQASQSIYSYLSWYQQKPGQRPKLLIYKASTLASGVPSRFSGSGSGTDFTLTISSVQPEDFATYYCQQGYTVTNVDKNTFGGGTKVEIKAAEPKSSDKTHTCPPCPAPEAAGGPSVFLFPPKPKDTLMISRTPEVTCVVVSVSHEDPEVKFNWYVDGVEVHNAKTKPREEQYNSTYRVVSVLTVLHQDWLNGKEYKCKVSNKALPAPIEKTISKAKGQPREPQVYVLPPSRDELTKNQVSLLCLVKGFYPSDIAVEWESNGQPENNYLTWPPVLDSDGSFFLYSKLTVDKSRWQQGNVFSCSVMHEALHNHYTQKSLSLSPG
3 | 77 nM | – | – | – | – | – | no binding | v38426 (other, CD3 Fab with C-term Cldn18.2 scFv x Cldn18.2 scFv Fc with attenuated (KO) PD-1 attached to CD3 LC (N-term)) heavy 1: EVQLVESGGGLVQPGGSLRLSCAASGVTFNYYGMSWIRQAPGKGLEWVASITSSGGRIYYPDSVKGRFTISRENTQKTLYLQMNSLRAEDTAVYYCTLDGRDGWVAYWGQGTLVTVSSASTKGPSVFPLAPSSKSTSGGTAALGCLVKDYFPEPVTVSWNSGALTSGVHTFPAVLQSSGLYSLSSVVTVPSSSLGTQTYICNVNHKPSNTKVDKKVEPKSCDKTHTCPPCPAPEAAGGPSVFLFPPKPKDTLMISRTPEVTCVVVSVSHEDPEVKFNWYVDGVEVHNAKTKPREEQYNSTYRVVSVLTVLHQDWLNGKEYKCKVSNKALPAPIEKTISKAKGQPREPQVYVYPPSRDELTKNQVSLTCLVKGFYPSDIAVEWESNGQPENNYKTTPPVLDSDGSFALVSKLTVDKSRWQQGNVFSCSVMHEALHNHYTQKSLSLSPGGGGGSGQVQLVESGGGLVQPGGSLRLSCSVSGIDLSSNPMIWVRQAPGKGLQYIGIIDTDGSTYYADWAKGRFTISKDSTTVYLQINSPRAEDTAVYYCARRLHGSSNGYYDDLWGQGTLVTVSSGGGGSGGGGSGGGGSGGGGSDGQMTQSPSSVSASVGDRVTITCQASQSIYSYLSWYQQKPGQRPKLLIYKASTLASGVPSRFSGSGSGTDFTLTISSVQPEDFATYYCQQGYTVTNVDKNTFGGGTKVEIK light: NPPTFSPALLVVTEGDNATFTCSFSNTSESFVLNWYRMSPSNQTDALAAFPEDRSQPGQDARFRVTQLPNGRDFHMSVVRARRNDSGTYLCGAASLAPKAQIKESLRAELRVTEGGGGSGNFMLTQPHSVSESPGKTVTISCKRNTGNIGSNYVNWYQQHEGSSPTTIIYRNDKRPDGVSDRFSGSIDRSSKSASLTISNLKTEDEADYFCQSYSSGFIFGGGTKLTVLGQPKAAPSVTLFPPSSEELQANKATLVCLISDFYPGAVTVAWKADSSPVKAGVETTTPSKQSNNKYAASSYLSLTPEQWKSHRSYSCQVTHEGSTVEKTVAPTECS heavy 2: QVQLVESGGGLVQPGGSLRLSCSVSGIDLSSNPMIWVRQAPGKGLQYIGIIDTDGSTYYADWAKGRFTISKDSTTVYLQINSPRAEDTAVYYCARRLHGSSNGYYDDLWGQGTLVTVSSGGGGSGGGGSGGGGSGGGGSDGQMTQSPSSVSASVGDRVTITCQASQSIYSYLSWYQQKPGQRPKLLIYKASTLASGVPSRFSGSGSGTDFTLTISSVQPEDFATYYCQQGYTVTNVDKNTFGGGTKVEIKAAEPKSSDKTHTCPPCPAPEAAGGPSVFLFPPKPKDTLMISRTPEVTCVVVSVSHEDPEVKFNWYVDGVEVHNAKTKPREEQYNSTYRVVSVLTVLHQDWLNGKEYKCKVSNKALPAPIEKTISKAKGQPREPQVYVLPPSRDELTKNQVSLLCLVKGFYPSDIAVEWESNGQPENNYLTWPPVLDSDGSFFLYSKLTVDKSRWQQGNVFSCSVMHEALHNHYTQKSLSLSPG
